Experimental data published in PMC10312692 (bioRxiv, 2023).
Residue numbers refer to the chain shown, from its start. In names and notes the source's numbering stands.

B1: DISC1 598-854 C680S/C682S/C684S/C698S/C762S/C782S/C844S (domain or fragment)
chain: GNHFFTAKDLTEEIRSLTSEREGLEGLLSKLLVLSSRNVKKLGSVKEDYNRLRREVEHQETAYETSVKENTMKYMETLKNKLSSSKSPLLGKVWEADLEASRLLIQSLQLQEARGSLSVEDERQMDDLEGAAPPIPPRLHSEDKRKTPLKVLEEFKTHLIPSLHSAGGEQKEESYILSAELGEKSEDIGKKLLYLEDQLHTAIHSHDEDLIQSLRRELQMVKETLQAMILQLQPAKEAGEREAAASSMTAGVHEAQA
B2: DISC1 598-854 C682S/C698S/C762S/C782S/C844S (domain or fragment)
chain: B1 chain with S83C, S87C
B3: DISC1 598-854 C680S/C682S/C698S/C762S/C782S/C844S (domain or fragment)
chain: B1 chain with S87C
B4: DISC1 598-854 C698S/C762S/C782S/C844S (domain or fragment)
chain: B1 chain with S83C, S85C, S87C
B5: DISC1 598-854 C684S/C698S/C762S/C782S/C844S (domain or fragment)
chain: B1 chain with S83C, S85C
B6: DISC1 598-854 C682S/C684S/C698S/C762S/C782S/C844S (domain or fragment)
chain: B1 chain with S83C
B7: DISC1 598-854 C680S/C698S/C762S/C782S/C844S (domain or fragment)
chain: B1 chain with S85C, S87C
B8: DISC1 598-854 C680S/C684S/C698S/C762S/C782S/C844S (domain or fragment)
chain: B1 chain with S85C

Molecular target: the molecule itself
Test: SEC

Protein	binding result
B1	binds
B2	binds
B3	binds
B4	binds
B5	binds
B6	binds
B7	binds
B8	binds
